This data set relates to casein.

For GST-WKS1_Kinase fusion protein, the in-gel kinase activity result is given as “The WKS1 Ser/Thr kinase domain (pfam00069) was confirmed to have kinase activity (FIG. 17)”.
